Assay results from the supplement of paper PMC10724198.
± gives the standard deviation of the averaged measurements.

Legend:
Assay in all cases: protein stability index of tFT-peptide fusion (C-terminal peptide) (PSI (0-1 scale)); higher = more stable (slower turnover)
Saccharomyces cerevisiae [1] = conditions: temperature: 30 C
Protocol: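 MPS profiling in S. cerevisiae of the yeast C-terminome library: the last 12 aa of each annotated ORF are fused to the C-terminus of a sfGFP-mCherry timer, after a GGGS linker. Cells are FACS-sorted into 8 mCherry/sfGFP bins and deep-sequenced. PSI runs from 0 (unstable) to 1 (stable); wild type and das1Δ backgrounds, two technical replicates each.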

Saccharomyces cerevisiae [2] = test system: Saccharomyces cerevisiae
Protocol: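 MPS profiling in S. cerevisiae of the tFT-X12 degron library: putative degron peptides plus stable controls, 12 aa, fused to the C-terminus of a sfGFP-mCherry timer. Cells are FACS-sorted into 8 mCherry/sfGFP bins and deep-sequenced. PSI runs from 0 (unstable) to 1 (stable). Backgrounds are wild type, das1Δ and doa10Δ at 30 °C, and wild type, das1Δ, cdc34-1 and cdc53-1 at 37 °C; 2-3 technical replicates each.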

Saccharomyces cerevisiae [3] = conditions: genetic background: wild type; temperature: 30 C
[4] = genetic background: das1 deletion
[5] = genetic background: cdc34-1, temperature: 37 C
[6] = genetic background: cdc53-1, temperature: 37 C
[7] = genetic background: das1 deletion, temperature: 30 C
[8] = genetic background: das1 deletion, temperature: 37 C
[9] = genetic background: doa10 deletion, temperature: 30 C
[10] = genetic background: wild type, temperature: 30 C
[11] = genetic background: wild type, temperature: 37 C

Row | Sequence | protein stability index (Saccharomyces cerevisiae [1]; [4]) | protein stability index (Saccharomyces cerevisiae [1]; genetic background: wild type) | protein stability index (Saccharomyces cerevisiae [2]; [5]) | protein stability index (Saccharomyces cerevisiae [2]; [6]) | protein stability index (Saccharomyces cerevisiae [2]; [7]) | protein stability index (Saccharomyces cerevisiae [2]; [8]) | protein stability index (Saccharomyces cerevisiae [2]; [9]) | protein stability index (Saccharomyces cerevisiae [2]; [10]) | protein stability index (Saccharomyces cerevisiae [2]; [11]) | protein stability index (Saccharomyces cerevisiae [3])
1 | ELEELLEPILAN [GRX1 C-terminal 12 aa] | 0.406 ± 0.028 | 0.4708 ± 0.00077 |  |  |  |  |  |  |  | 
2 | NLVASKQLSTYK [RAV2 C-terminal 12 aa] | 0.694 ± 0.0082 | 0.641 ± 0.031 |  |  |  |  |  |  |  | 
3 | AIGNCVQDEEKL [AVL9 C-terminal 12 aa] | 0.717 ± 0.0097 | 0.679 ± 0.035 |  |  |  |  |  |  |  | 
4 | SSVVSRVSRSCR [YAR060C C-terminal 12 aa] | 0.7343 ± 0.0019 | 0.668 ± 0.043 |  |  |  |  |  |  |  | 
5 | GNLMRSSNVLEK [SLO1 C-terminal 12 aa] | 0.685 ± 0.0076 | 0.7 ± 0.016 |  |  |  |  |  |  |  | 
6 | AYQITKRGIETA [RAD57 C-terminal 12 aa] | 0.675 ± 0.061 | 0.6951 ± 0.004 |  |  |  |  |  |  |  | 
7 | RIPKELTGTVRF [GAT4 C-terminal 12 aa] | 0.705 ± 0.018 | 0.672 ± 0.014 |  |  |  |  |  |  |  | 
8 | TEAMNSEIDGTK [ATG16 C-terminal 12 aa] | 0.686 ± 0.017 | 0.703 ± 0.042 |  |  |  |  |  |  |  | 
9 | EIKQRNLRMQRQ [MPO1 C-terminal 12 aa] | 0.683 ± 0.026 | 0.678 ± 0.01 |  |  |  |  |  |  |  | 
10 | TKKLLRDYFSQF [SMN1 C-terminal 12 aa] | 0.712 ± 0.0096 | 0.188 ± 0.014 |  |  |  |  |  |  |  | 
11 | LSQIVDIWNKDI [MNT2 C-terminal 12 aa] | 0.741 ± 0.03 | 0.79 ± 0.044 |  |  |  |  |  |  |  | 
12 | CNLFSERKPVNH [YGL188C-A C-terminal 12 aa] | 0.6966 ± 0.0021 | 0.691 ± 0.011 |  |  |  |  |  |  |  | 
13 | GKYFLKEEQDEI [YUR1 C-terminal 12 aa] | 0.692 ± 0.025 | 0.7058 ± 0.0067 |  |  |  |  |  |  |  | 
14 | AVETLKKGGFLP [YDL177C C-terminal 12 aa] | 0.7 ± 0.013 | 0.685 ± 0.0071 |  |  |  |  |  |  |  | 
15 | FFPFITIIFFHS [YCR024C-B C-terminal 12 aa] | 0.324 ± 0.026 | 0.299 ± 0.01 |  |  |  |  |  |  |  | 
16 | KCLYVQVITKSN [ECM8 C-terminal 12 aa] | 0.5487 ± 0.0052 | 0.256 ± 0.019 |  |  |  |  |  |  |  | 
17 | PIKEVLLENWDQ [PUS5 C-terminal 12 aa] | 0.715 ± 0.017 | 0.683 ± 0.024 |  |  |  |  |  |  |  | 
18 | LVLKQRQEQEKQ [GDI1 C-terminal 12 aa] | 0.688 ± 0.025 | 0.717 ± 0.06 |  |  |  |  |  |  |  | 
19 | CINCSRFIHNIN [YMR230W-A C-terminal 12 aa] | 0.70103 ± 0.00057 | 0.304 ± 0.013 |  |  |  |  |  |  |  | 
20 | PCTASITSLISF [YDR269C C-terminal 12 aa] | 0.709 ± 0.012 | 0.731 ± 0.03 |  |  |  |  |  |  |  | 
21 | DGGWGNRGRSNY [DBP2 C-terminal 12 aa] | 0.701 ± 0.01 | 0.667 ± 0.05 |  |  |  |  |  |  |  | 
22 | PKETLHRSDHQG [YPR039W C-terminal 12 aa] | 0.6938 ± 0.0051 | 0.689 ± 0.076 |  |  |  |  |  |  |  | 
23 | KDNTVDIYDVNG [TGS1 C-terminal 12 aa] | 0.687 ± 0.023 | 0.682 ± 0.013 |  |  |  |  |  |  |  | 
24 | SVVSQPPPGYEQ [HSE1 C-terminal 12 aa] | 0.7102 ± 0.0066 | 0.667 ± 0.02 |  |  |  |  |  |  |  | 
25 | KSEEAKKRTSLY [YBR124W C-terminal 12 aa] | 0.694 ± 0.013 | 0.679 ± 0.023 |  |  |  |  |  |  |  | 
26 | TKMFPAHSHVLW [THP1 C-terminal 12 aa] | 0.716 ± 0.032 | 0.72 ± 0.014 |  |  |  |  |  |  |  | 
27 | VDKLAGVRVLPV [GOT1 C-terminal 12 aa] | 0.67 ± 0.01 | 0.704 ± 0.019 |  |  |  |  |  |  |  | 

Row | Sequence | protein stability index (Saccharomyces cerevisiae [1]; [4]) | protein stability index (Saccharomyces cerevisiae [1]; genetic background: wild type) | protein stability index (Saccharomyces cerevisiae [2]; [5]) | protein stability index (Saccharomyces cerevisiae [2]; [6]) | protein stability index (Saccharomyces cerevisiae [2]; [7]) | protein stability index (Saccharomyces cerevisiae [2]; [8]) | protein stability index (Saccharomyces cerevisiae [2]; [9]) | protein stability index (Saccharomyces cerevisiae [2]; [10]) | protein stability index (Saccharomyces cerevisiae [2]; [11]) | protein stability index (Saccharomyces cerevisiae [3])
28 | ASSSDRPTVAAT [RRT5 C-terminal 12 aa] | 0.6995 ± 0.0066 | 0.681 ± 0.021 |  |  |  |  |  |  |  | 
29 | LLKKLKVVFGIE [FUN12 C-terminal 12 aa] | 0.703 ± 0.014 | 0.68523 ± 0.0002 |  |  |  |  |  |  |  | 
30 | ATRRHLAHAPKL [DPI8 C-terminal 12 aa] | 0.799 ± 0.016 | 0.782 ± 0.064 |  |  |  |  |  |  |  | 
31 | AVGIQSSESLLM [YMR175W-A C-terminal 12 aa] | 0.688 ± 0.012 | 0.715 ± 0.031 |  |  |  |  |  |  |  | 
32 | RFRVVLGDSDDE [PSH1 C-terminal 12 aa] | 0.672 ± 0.043 | 0.721 ± 0.075 |  |  |  |  |  |  |  | 
33 | VKYSRIIPPDIR [SUM1 C-terminal 12 aa] | 0.72 ± 0.017 | 0.69 ± 0.032 |  |  |  |  |  |  |  | 
34 | YSDGRNYKESSI [CSS3 C-terminal 12 aa] | 0.69 ± 0.037 | 0.656 ± 0.045 |  |  |  |  |  |  |  | 
35 | PVRMYALKPMPN [TAE1 C-terminal 12 aa] | 0.6931 ± 0.0035 | 0.665 ± 0.04 |  |  |  |  |  |  |  | 
36 | LQYKKVGKWRED [URB2 C-terminal 12 aa] | 0.724 ± 0.017 | 0.736 ± 0.0096 |  |  |  |  |  |  |  | 
37 | GNSDGSVEVTEK [RKI1 C-terminal 12 aa] | 0.6897 ± 0.0053 | 0.705 ± 0.03 |  |  |  |  |  |  |  | 
38 | SRIYQTFTDPSN [ADY4 C-terminal 12 aa] | 0.729 ± 0.024 | 0.702 ± 0.061 |  |  |  |  |  |  |  | 
39 | PLLELVMELRDR [MOB1 C-terminal 12 aa] | 0.726 ± 0.051 | 0.736 ± 0.01 |  |  |  |  |  |  |  | 
40 | CLFRVCLFILSI |  |  | 0.397 ± 0.019 | 0.49 ± 0.049 | 0.333 ± 0.038 | 0.489 ± 0.0053 | 0.3114 ± 0.00076 | 0.3 ± 0.028 | 0.467 ± 0.013 | 0.386 ± 0.0041
41 | RIIDRVSRLIML |  |  | 0.765 ± 0.026 | 0.826 ± 0.019 | 0.689 ± 0.034 | 0.765 ± 0.015 | 0.453 ± 0.021 | 0.482 ± 0.034 | 0.627 ± 0.032 | 0.543 ± 0.089
42 | SSGSLLLPRFLT |  |  | 0.658 ± 0.038 | 0.7301 ± 0.0046 | 0.672 ± 0.023 | 0.734 ± 0.019 | 0.222 ± 0.019 | 0.243 ± 0.038 | 0.54 ± 0.037 | 0.387 ± 0.03
43 | HSPPVPFPPPTS |  |  | 0.647 ± 0.068 | 0.733 ± 0.035 | 0.651 ± 0.034 | 0.72 ± 0.0074 | 0.688 ± 0.012 | 0.672 ± 0.017 | 0.694 ± 0.024 | 0.358 ± 0.033
44 | LTCTSTPMACRV |  |  | 0.562 ± 0.067 | 0.589 ± 0.021 | 0.443 ± 0.026 | 0.596 ± 0.011 | 0.429 ± 0.015 | 0.475 ± 0.013 | 0.5859 ± 0.0028 | 0.452 ± 0.0075
45 | TLNKDILIIKCA |  |  | 0.382 ± 0.023 | 0.42 ± 0.036 | 0.286 ± 0.035 | 0.45 ± 0.013 | 0.135 ± 0.022 | 0.175 ± 0.022 | 0.214 ± 0.049 | 0.212 ± 0.0051
46 | VIWIRMISFFVW |  |  | 0.192 ± 0.035 | 0.283 ± 0.024 | 0.2 ± 0.043 | 0.35 ± 0.013 | 0.174 ± 0.01 | 0.188 ± 0.034 | 0.346 ± 0.048 | 0.245 ± 0.015
47 | GGWGSSLGVWVG |  |  | 0.663 ± 0.026 | 0.7542 ± 0.0024 | 0.644 ± 0.018 | 0.7674 ± 0.0045 | 0.178 ± 0.017 | 0.217 ± 0.015 | 0.4022 ± 0.0038 | 0.253 ± 0.011
48 | VGYHCIVGVIFL |  |  | 0.467 ± 0.031 | 0.491 ± 0.041 | 0.359 ± 0.036 | 0.545 ± 0.0059 | 0.326 ± 0.012 | 0.372 ± 0.013 | 0.512 ± 0.015 | 0.524 ± 0.081
49 | PLLPPLSTPPPA |  |  | 0.69 ± 0.0086 | 0.732 ± 0.023 | 0.663 ± 0.015 | 0.739 ± 0.011 | 0.669 ± 0.022 | 0.677 ± 0.013 | 0.6983 ± 0.0039 | 0.385 ± 0.062
50 | LLTAARAQLFAV |  |  | 0.65 ± 0.0086 | 0.704 ± 0.029 | 0.578 ± 0.016 | 0.7 ± 0.022 | 0.457 ± 0.013 | 0.477 ± 0.019 | 0.6168 ± 0.0014 | 0.503 ± 0.046
51 | SLSPVFVAVWFL |  |  | 0.466 ± 0.012 | 0.4933 ± 0.0015 | 0.383 ± 0.057 | 0.537 ± 0.01 | 0.323 ± 0.0075 | 0.331 ± 0.016 | 0.474 ± 0.026 | 0.432 ± 0.013
52 | PFLSLPFLFPSS |  |  | 0.715 ± 0.026 | 0.769 ± 0.012 | 0.684 ± 0.0075 | 0.7675 ± 0.0052 | 0.687 ± 0.027 | 0.696 ± 0.027 | 0.757 ± 0.016 | 0.531 ± 0.14
53 | PLRLRCASLFAN |  |  | 0.62 ± 0.021 | 0.692 ± 0.0095 | 0.618 ± 0.034 | 0.737 ± 0.04 | 0.304 ± 0.018 | 0.362 ± 0.019 | 0.5647 ± 0.002 | 0.498 ± 0.086
